B1: unnamed (protein)
chain: MPKSDRSTPQPARSQHGGFAKLSLGLTALLMSVLVHAQSNPFERGPEPTVASLEAAAGPYAVQTTQVGKGNSNDYARGTVYYPVANDGQFALIAIVPGYTERQAGVSWWGSRLASHGFVVVTVDTNAPGEFPPSRARALKDALATVVKLSQTSSSPFFGKIDASRQGIMGHSMGGGATLELARSNSKLKAAIPFAPWNSNSKVYTRVKVPTLIISCQRDAVAPVNSHANKFYDSFSATLDKALLEVTGGDHYCASTSASAANKAVVGKYGVAWMKRFLDNDTRYSQFLCGAPHQADLAGPIISSYKDSCPY
B2: unnamed (protein)
chain: MKTTKGTKIALIAFTLSFSLSAFSGGGGGGNNNGGLPAPNTCTSNCGFETGPNPNLNFVRASRGPLPTRTTVVSRSVDGFGGGTIYYPSNASEEMAAIAVSPGFTATQSSIDWWGPILASHGFVVITIDTNSRFDQPISRGRQLDSALSYLISENSRRNSPISGLVDETRLATMGHSMGGGGALRSASRNRLSAAMPMAPFNVGNNDFNQIRVPTMIMACENDVVAPVGIHARPFYNRIPGSTDKVLLEFNNGPHNCANGESSGNRPLLSTYGVSWMKRFLDKDRRYNQFLCGPNHVANNGISDFRSTCTF
B3: unnamed (protein)
chain: MKKNIFKKACLSALVIAFSLSAHSGGGGGDDGGSDQLPLPDSCNSNCGYEVGPNPTLSALEATQGPLSVSASTVSSSVDGFGGGTIYYPNNASQELATIAVAPGFTNTQSAIQWWGPLLASHGYVVITIDTNGRFDNPGSRSLQLDAALSYLISEGNRSSSDISGLVDENRLATMGFSMGGGGTLISASRNRLSAAVPMAPWNTGGNDFDAIGVPTLIFACEDDSTARINSHASPFYNSIPSSTDKAYMEINNGPHNCANGNNGNGNDALLSTYGVSWMKRFLDKDSRYDQFLCGPNHVANSKINEYRDTCNY
B4: unnamed (protein)
chain: MLGVMGWSMGGGGTLITVDDHPELKAAITLCAWNPGQTYRQNQVPTLLFAGTADVLAGGQSQGFYTSIPETTPKMLFEVQGADHFFANTPEGASGQCGKYGTAWLKVFLVGDECYRPFLLEPPSGTSDFRTNLE
B5: unnamed (protein)
chain: MERGNHRAKWVIGLGLLALAAAAQSQTNPFQKGPDPTSTLLNATSGPFSVATSSVSSLAAQGFGGGTIYYPSTTGTYAVLAISPGFTATQSSIAWLGRRIATHGFVVITIDTNSTLDQPPSRATQLIAALRHVTDLSNATVRSRVDASRRGVAGHSMGGGGSLIAARDNPSLKAAVPLTAWSTTKVFSTVQVPTLVVGAENDTIASVSSHSIPFYTSLSSSLDKAYAELNNASHLAPNTTNTPIGRYSVAWVKRFMDNDTRYTPFLCGAPHQSYATSAVFSDYRSTCPY
B6: unnamed (protein)
chain: MRPCSRSTNTTPPLRTRSRPMTALIALATTIGLALTLLTATAAPAAAADLLSQGKPVTSSSTENTSTPASAAVDGNTGTRWSSTFSDPQWLTVDLGATATISQVVLRWEAAYARSFRIQTSDNGTSWTTIHSTTTSTGGAQTLDVNGSGRYIRLYGTQRGTAYGYSLWEFQVYGSGEGTPPGSGIPDPTTVSLEATNGPLTTATYTVPSPSGYGSGTVTYPTASGSYPGIVLMPGYQGTQQNLQWLAPRLASWGFVVINVGTNTLTDDPESRGRQITAAGTQLLALGDAPGNPLSGKLNGTLGATGHSMGGGGVMAALRDDSRFRAGVPTAPYHPNGNFSGVTEPTFFLTCQSDAVAHGDRYAVPWYTSMSQAEKLYIEVPGDHLCPMTGYGNKAKQGKWMVSFFSLWLRADTRFSPFLCGPARDADKNDTSLVTRWMDTCQF
B7: unnamed (protein)
chain: MRPPCCSAGATWLSRSRSRAAVVLTTLVATVSALLIVSAAPALAAPVPAPTTASLEATNGPLATASYTVPNPSGYGSGTITYPTGSGSYPGVVLMPGYQGTQQNLRWLAPRLASWGFVVVNVGTRTLTDDPESRGDQISAAGTQLLAFSNAVGNPITGKVNGTLGAAGHSMGGGGTMVALRDDARFRAGVPLAPYYQNGNFSSVAKPTFSLTCRSDVAAPGNTYALPWYNSMTRAEKLYVEVPGDHLCPMTGYGNKAKQGKWIVSFFSRWLRGDTRFSPFLCGAEREADRNNAALVTRWMDTCPY
B8: unnamed (protein)
chain: MKLTFVPLAITVVATLTCTSVVAKINLVESQVIQISELKKPAESLIDKSAQTAALPIPPSIATCIDDSAISADNLSQAKDNGPFAISSKDIPRQSAIGFGGGTIHYPINASGCGLLAAIAVVPGFVSYESSIKWLGPRLAAWGFVVITINTDSIYDNPDSRARQLSAALDTIISDDNVGSIVDPNRLGAIGWSMGGGGALKLATVRDEVRAIVPLAPYHDKDYGEVSTPTLVIACQFDRIARNKKYGSMFYDKAIGPKMKVELNNASHFCPSYRFNEILLSKPIIAWMQRYINEDERFDKLLCANETYSENPRFSSYDYANCS

Consider 8 proteins from the PETadex activity labels.

Substrate in the series: BHET
Particulars: 120 h.
In the case of B1, the plate clearing entry is given as “clears the plate (z > 3 vs empty vector)”.
For B2 the value was “not clears the plate”; for B3, “not clears the plate”.
For B4, the plate clearing result is on record as “not clears the plate”.
B5: the plate clearing result is recorded as “not clears the plate”.
In the case of B6, the plate clearing result is reported as “not clears the plate”.
For B7, the plate clearing result is recorded as “not clears the plate”.
On to B8, for which the plate clearing result was “not clears the plate”.
